Assay [1] addresses N-terminal tagged 3XFLAG artemin construct (A. fransciscina). The assay can be described thus: cryo-EM structure; single particle cryo-EM, 0.2-1.5 mg/ml protein on Quantifoil grids, 300 keV Titan Krios; C1 ab-initio then octahedral symmetry imposed.
Assay [2] has the same target. Nature of the assay: native MS; intact complex; 200 mM ammonium acetate, 1-2 uM protein, Waters Synapt G2s-i.
Assay [3] shares this target. Nature of the assay: native MS; 24mer isolated (manual fixed quad profile of 10,000), then collision induced dissociation (argon); released subunits observed; dimers are held by inter-subunit disulfides.
Assay [4] deals with artemin with a C-terminal 6xHis tag (A. fransciscina). The assay can be described thus: cryo-EM structure; single particle cryo-EM, 0.2-1.5 mg/ml protein on Quantifoil grids, 300 keV Titan Krios; C1 ab-initio then octahedral symmetry imposed.
Assay [5] shares this target. Nature of the assay: native MS; intact complex; 200 mM ammonium acetate, 1-2 uM protein, Waters Synapt G2s-i.
The target is the same in assay [6]. The assay can be described thus: native MS; 24mer isolated (manual fixed quad profile of 10,000), then collision induced dissociation (argon); released subunits observed; dimers are held by inter-subunit disulfides.
Assay [7] shares this target. The assay can be described thus: native gel or EMSA; Native PAGE of the protein after affinity purification and SEC. In general terms: In EMSA bound probe runs differently from free probe, usually more slowly.
The target in assay [8] is fluorescent artemin-His (A. fransciscina). The assay can be described thus: native MS; intact complex; 200 mM ammonium acetate, 1-2 uM protein, Waters Synapt G2s-i.
Assay [9] has the same target. Nature of the assay: native MS; 24mer isolated (manual fixed quad profile of 10,000), then collision induced dissociation (argon); released subunits observed; dimers are held by inter-subunit disulfides.

By stoichiometry N is commonly meant the number of molecules, sites or subunits per partner or assembly. For “N-terminal tagged 3XFLAG artemin construct (natural protein)”, the stoichiometry N in assay [1] was found to be 24; in [2], 24; in [3], 2.
As for “artemin with a C-terminal 6xHis tag (natural protein)”, the stoichiometry N was determined as 24 in [4], 24 in assay [5], 2 in assay [6] and 24 in assay [7].
As for “fluorescent artemin-His (natural protein)”, the stoichiometry N in [8] came to 24; in assay [9] it was 2.
